Test results published in paper PMC3973321 (Nucleic Acids Research, 2014).

Biological target: mitochondrial RNA polymerase (POLRMT), residues 42-1230 (human, UniProt O00411 42-1230)
Experiment: ITC

Chain of mitochondrial RNA polymerase (POLRMT), residues 42-1230 (O00411 42-1230): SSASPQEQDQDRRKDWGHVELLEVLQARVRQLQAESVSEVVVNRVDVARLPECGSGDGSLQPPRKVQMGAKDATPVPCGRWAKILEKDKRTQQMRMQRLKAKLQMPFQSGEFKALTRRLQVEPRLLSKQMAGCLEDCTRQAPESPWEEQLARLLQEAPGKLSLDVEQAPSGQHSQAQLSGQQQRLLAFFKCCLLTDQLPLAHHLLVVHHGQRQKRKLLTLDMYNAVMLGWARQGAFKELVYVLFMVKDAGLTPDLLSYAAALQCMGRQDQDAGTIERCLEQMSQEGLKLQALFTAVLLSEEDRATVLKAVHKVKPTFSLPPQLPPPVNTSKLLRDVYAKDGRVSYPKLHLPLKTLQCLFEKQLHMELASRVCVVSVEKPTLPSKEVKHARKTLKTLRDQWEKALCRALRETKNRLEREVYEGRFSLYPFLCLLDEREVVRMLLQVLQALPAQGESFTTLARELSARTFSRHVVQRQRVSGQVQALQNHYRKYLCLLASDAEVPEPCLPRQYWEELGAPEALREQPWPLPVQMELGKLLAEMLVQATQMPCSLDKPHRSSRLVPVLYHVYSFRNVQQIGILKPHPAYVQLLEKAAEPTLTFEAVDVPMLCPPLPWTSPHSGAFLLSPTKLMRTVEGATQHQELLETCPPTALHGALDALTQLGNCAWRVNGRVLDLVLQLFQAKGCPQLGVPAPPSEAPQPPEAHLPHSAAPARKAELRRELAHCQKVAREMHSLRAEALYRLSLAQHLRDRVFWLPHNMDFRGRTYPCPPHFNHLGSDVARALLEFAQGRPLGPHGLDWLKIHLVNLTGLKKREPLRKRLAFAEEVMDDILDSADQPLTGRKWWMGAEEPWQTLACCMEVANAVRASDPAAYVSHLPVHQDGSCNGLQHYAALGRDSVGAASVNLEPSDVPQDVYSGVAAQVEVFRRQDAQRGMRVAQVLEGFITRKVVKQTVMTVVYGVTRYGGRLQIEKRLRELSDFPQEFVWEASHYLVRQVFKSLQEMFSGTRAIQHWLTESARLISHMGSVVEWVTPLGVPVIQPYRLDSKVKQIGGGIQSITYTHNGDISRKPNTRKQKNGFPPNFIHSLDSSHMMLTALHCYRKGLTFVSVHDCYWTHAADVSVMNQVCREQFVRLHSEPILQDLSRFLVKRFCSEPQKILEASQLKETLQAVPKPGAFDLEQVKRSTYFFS

B1: TFAM, residues 43-246 (natural protein)
chain: SSVLASCPKKPVSSYLRFSKEQLPIFKAQNPDAKTTELIRRIAQRWRELPDSKKKIYQDAYRAEWQVYKEEISRFKEQLTPSQIMSLEKEIMDKHLKRKAMTKKKELTLLGKPKRPRSAYNVYVAERFQEAKGDSPQEKLKTVKENWKNLSDSEKELYIQHAKEDETRYHNEMKSWEEQMIEVGRKDLLRRTIKKQRKYGAEEC
With B1 the Kd was 4.6 µM and the dH was 11.1 kcal/mol.
